Data reported in doi:10.1101/2020.10.14.337170.
Like-named read-outs stand apart in the source and are kept apart here.

What was measured:
[1] = molecular target: Fluorescently-labelled phosphopeptide derived from KKT8 (Trypanosoma brucei); assay: fluorescence polarisation
[2] = molecular target: SNAP-6HIS-3FLAG-KKT4 (KKT4^2–645) (Trypanosoma brucei); assay: SEC-MALS
[3] = molecular target: Leishmania mexicana KKT4^184–284 (Leishmania mexicana); assay: crystal structure
[4] = molecular target: KKT4^101–352 (Trypanosoma brucei); assay: SEC-MALS
[5] = molecular target: KKT4^2–114 (Trypanosoma brucei); assay: SEC-MALS
[6] = molecular target: KKT4^2–114 (Trypanosoma brucei); assay: SEC-MALS; remark: listed apart in the source
[7] = molecular target: Trypanosoma cruzi (Sylvio X10) KKT4^117–218 (Trypanosoma cruzi (Sylvio X10)); assay: crystal structure

“KKT4^463–645 (KKT4 BRCT domain) (domain or fragment)” gave a Kd [1] of 30 µM.

Substance “SNAP-6HIS-3FLAG-KKT4 (KKT4^2–645) (natural protein)” has a stoichiometry N [2] of 4.

“Leishmania mexicana KKT4^184–284 (domain or fragment)” showed a stoichiometry N [3] of 2.

In the case of KKT4^101–352 (domain or fragment), the stoichiometry N [4] is reported as 2.

Substance KKT4^2–114 (domain or fragment) has a stoichiometry N [5] of 3 and a stoichiometry N [6] of 4.

“Trypanosoma cruzi (Sylvio X10) KKT4^117–218 (domain or fragment)” showed a stoichiometry N [7] of 2.
